According to patent US9758792B2, “Glyphosate resistant class 1 EPSPS genes” (SYNGENTA PARTICIPATIONS AG, priority 2013, dated 2017):
Changes are numbered by the printed parent chain. Names may count otherwise.

B1: ZmEPSPS-20: maize EPSPS mutant gene/protein, A68D and T102I; contains Table 2 mutant #13; SEQ ID NO. 6 (protein)
chain: AGAEEIVLQPIKEISGTVKLPGSKSLSNRILLLAALSEGTTVVDNLLNSEDVHYMLGALRTLGLSVEXDKAAKRAVVVGCGGKFPVEDAKEEVQLFLGNAGIAMRPLTAAVTAAGGNATYVLDGVPRMRERPIGDLVVGLKQLGADVDCFLGTDCPPVRVNGIGGLPGGKVKLSGSISSQYLSALLMAAPLALGDVEIEIIDKLISIPYVEMTLRLMERFGVKAEHSDSWDRFYIKGGQKYKSPKNAYVEGDASSASYFLAGAAITGGTVTVEGCGTTSLQGDVKFAEVLEMMGAKVTWTETSVTVTGPPREPFGRKHLKAIDVNMNKMPDVAMTLAVVALFADGPTAIRDVASWRVKETERMVAIRTELTKLGASVEEGPDYCIITPPEKLNVTAIDTYDDHRMAMAFSLAACAEVPVTIRDPGCTRKTFPDYFDVLSTFVKN
modifications: Mutated zea mays; (68)..(68) X = D or E
B2: ZmEPSPS-27: maize EPSPS mutant gene/protein, A68E and G101C; contains Table 2 mutant #8; SEQ ID NO. 7 (protein)
chain: B1 chain with G101C, I102T
modifications: Mutated zea mays; (68)..(68) X = D or E

Legend:
[1] = target: native EPSPS from E. coli (Escherichia coli, UniProt P0A6D3); conditions: read-out: apparent Km for PEP; cited from earlier work
Sequence of native EPSPS from E. coli (P0A6D3 whole entry): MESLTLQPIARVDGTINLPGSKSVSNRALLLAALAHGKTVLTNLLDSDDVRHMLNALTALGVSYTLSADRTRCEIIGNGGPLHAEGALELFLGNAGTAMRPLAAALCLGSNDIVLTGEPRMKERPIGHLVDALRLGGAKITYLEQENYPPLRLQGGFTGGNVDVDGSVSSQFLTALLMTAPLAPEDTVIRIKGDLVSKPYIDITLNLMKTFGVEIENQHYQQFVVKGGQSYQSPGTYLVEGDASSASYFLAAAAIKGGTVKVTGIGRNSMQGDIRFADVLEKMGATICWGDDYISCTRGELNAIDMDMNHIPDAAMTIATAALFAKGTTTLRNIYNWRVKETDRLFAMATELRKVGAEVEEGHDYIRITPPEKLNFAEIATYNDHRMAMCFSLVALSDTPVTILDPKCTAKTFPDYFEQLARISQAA

[2] = test system: T0 transgenic tobacco plants; assay: Spray with glyphosate (Touchdown) on ZmEPSPS mutant containing tobacco; type: in vivo; conditions: for tolerance to Touchdown spray: 2× and 4× field rates; for tolerance to Touchdown spray / herbicide damage: 2 weeks post treatment; for herbicide damage: 4× field rates as printed in the text; for Damage: assessed 2 weeks post treatment
Method: T0 transgenic tobacco plants were grown on soil for 4 weeks in Conviron growth chambers. These plants were sprayed with 2×, 4× and 8× Touchdown herbicide at 2×, 4× and 8× field rate (1× field rate=1680 g AE/Ha), respectively, and the herbicide damage was assessed 2 weeks post treatment. […]

tobacco leaf discs = assay: Screening maize mutants using tobacco regeneration system on glyphosate medium; type: cell-based; conditions: regeneration medium containing 50 nM glyphosate and 200 mg/L Timentin
Method: The efficacy of maize mutant genes (Table 2) were tested using a tobacco leaf discs transformation/regeneration system. […] Additionally, a third mutant comprising the mutations of mutant #8 and #13 is possible resulting in an […] mutant.

[3] = Touchdown 2X field rate (1X = 1680 g AE/Ha)
[4] = Touchdown 4X field rate (1X = 1680 g AE/Ha)
[5] = Touchdown 8X field rate (1X = 1680 g AE/Ha)

Row | Molecule | Km [1] | tolerance to Touchdown spray [2] | herbicide damage [2] | Damage [2, 3] | Damage [2, 4] | Damage [2, 5] | ability to regenerate on glyphosate media (tobacco leaf discs)
1 | C=C(OP(=O)(O)O)C(=O)O [PEP, phosphoenolpyruvic acid] | 10 µM |  |  |  |  |  | 
2 | B1 |  | completely tolerant | only minor damage | No damage | No damage | Minor damage at shoot apex | tolerant mutants
3 | B2 |  | completely tolerant | only minor damage | No damage | No damage | Minor damage, some | tolerant mutants
